From article PMC12392934, “TCP19 regulates nitrogen‐dependent sheath blight susceptibility by modulating nitrogen uptake and signalling in rice” come the findings set out here.

The labels stand for the following.
T1: GST-PIL15 (Oryza sativa, UniProt Q0JNI9 1-637)
T1 sequence: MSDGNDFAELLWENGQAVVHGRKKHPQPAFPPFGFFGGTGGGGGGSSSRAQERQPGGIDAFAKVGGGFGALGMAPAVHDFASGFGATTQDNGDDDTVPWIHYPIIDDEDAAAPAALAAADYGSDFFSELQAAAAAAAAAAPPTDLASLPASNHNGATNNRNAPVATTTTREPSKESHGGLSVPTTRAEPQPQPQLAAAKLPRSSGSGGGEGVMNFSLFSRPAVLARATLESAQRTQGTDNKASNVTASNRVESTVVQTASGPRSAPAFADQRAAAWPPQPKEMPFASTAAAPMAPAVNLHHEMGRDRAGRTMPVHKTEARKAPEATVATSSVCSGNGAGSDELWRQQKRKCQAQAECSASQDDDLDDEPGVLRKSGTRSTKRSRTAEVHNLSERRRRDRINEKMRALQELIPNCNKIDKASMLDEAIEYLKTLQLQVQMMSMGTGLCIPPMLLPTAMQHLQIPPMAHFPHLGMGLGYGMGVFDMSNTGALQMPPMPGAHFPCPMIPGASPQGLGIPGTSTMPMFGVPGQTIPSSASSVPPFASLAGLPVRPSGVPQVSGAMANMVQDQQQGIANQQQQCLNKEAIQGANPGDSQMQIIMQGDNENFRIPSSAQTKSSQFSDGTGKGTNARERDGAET

B1: pDEP1-PBE (dsDNA)
DNA 1: GATGCACACATGAAGATCGT
DNA 2: ACGATCTTCATGTGTGCATC
B2: pAMT1;2-PBE (dsDNA)
DNA 1: ACCAAAACACATGAAATCCT
DNA 2: AGGATTTCATGTGTTTTGGT
B3: pNRT1.1B-PBE (dsDNA)
DNA 1: ACACACACATGTGTTGTAAT
DNA 2: ATTACAACACATGTGTGTGT

The target of the series is T1, GST-PIL15. Put plainly: EMSA; Chemiluminescent EMSA kit (Thermo Fisher); buffer, salt, pH and temperature not stated. Conditions: protein: recombinant; tags: N-terminal GST (pGEX-5X-1); chain copies: 2; label: biotin (ends); blunt. For orientation: In EMSA bound probe runs differently from free probe, usually more slowly.
As for B1, the binding result is reported as “binds”.

Regarding B2, the binding result is given as “binds”.

B3: the binding result is “binds”.
